Reference: the DeepSol protein solubility set

Experiment: soluble on expression in E. coli; label from the status in PepcDB or PDB records

Sequence | soluble on expression in E. coli
MNEISVVLPAYNEEENIQKLVKRWQQLCKDLKYKYELSLNIFVIDDGSKDKTEVIGRELERKYDNFYLIKHDKNKGLGEAINTGIKYVMEKRSDSKYVCIMDCDNTQDPRYVFSMIEKMEKTDVVIASRYQKGSCVKGVPFFRLTASYGARFVYTIFLGVKNVRDYTCGYRLYRTSALKTAFKVFGESFIEESGFTCMVELLYKLNICGAVFKEVPFTLRYDFKGGVSKMKVLITAINSVKLTLRLKKIRKGVEPVLEDLEHHHHHH | not soluble
MNEKNIKHSQNFITSKHNIDKIMTNIRLNEHDNIFEIGSGKGHFTLELVQRCNFVTAIEIDHKLCKTTENKLVDHDNFQVLNKDILQFKFPKNQSYKIFGNIPYNISTDIIRKIVFDSIADEIYLIVEYGFAKRLLNTKRSLALFLMAEVDISILSMVPREYFHPKPKVNSSLIRLNRKKSRISHKDKQKYNYFVMKWVNKEYKKIFTKNQFNNSLKHAGIDDLNNISFEQFLSLFNSYKLFNK | soluble
MNENWNWSLVDKVVYINLKERTDRNEHIKKELEKVCFPPEKIIRFEAIRAGSGFIGCAKSHLAVLKMAQENNWRNILILEDDMVFEDDDETIIRTNNFLSKLNNIHWDAAFLSASYYIVNAIDDNFFKVNFAYLANSYLVNNHYYEKLINNYTESVQRLTNGESSSEYGLDSNWLKIMKIDNWYGIYPVIGYQRTDISDIEYKEIDRTHQFTRTFDKMKAYGSK | soluble
MNEQAILQSAEAWVKKQLMDEYSGHDWYHIRRVTLMAKAIGEQEKVDVFVVQIAALFHDLIDDKLVDDPETAKQQLIDWMEAAGVPSQKIDHTMDIINTISFKGGHGQSLATREAMVVQDADRLDALGAIGIARTFAYSGNKGQPIYDPELPIRETMTVEEYRHGKSTAINHFYEKLFKLKDLMNTETGKQLAKERHVFMEQFIERFLSEWNGDMLEHHHHHH | soluble
MNERLIFNPKQLTSARIARGLTMKELAEKAELSRQMISNYESGKTIPKADSILKLISVLQFPRSFFSADTFELYSGATFFRSRSAATKKVRDMQKERLKYVQEVYKVLATYVNFPKVCLPELIEKSIYEITEEEIVKKAEELRKIWGLDLISPVPNLIQLAEQNGVIISEANMSNPTLDAVSRWMIGRPFIMLTDNHESAVRRRFNVAHELGHILLHNGVESIHEYSQTELKNIIEYQANLFAAHFLLPSAAFSDSLLSISLEYYIDLKKYWKVSLQSMIQKIYTLALINDDQRLYLNKRIAKNKWKTKEPYDEQLTIEQPEVFQKVYHMILEHQVIPASQLNQAFKLPKEEIEKILGTAIQTEQDKTEIVLELLRSNK | not soluble
MNFVQPIRDPEQIQQLKDYFKEKSLRNYILFIMGINTGLRISDILKLKVGDVKGSHISMREEKTGKQKRIQITAALKRELKWFIEEREDNEYLLQSRQGRNRPIGRSMAYKILSGAAADFGLDEIGTHTLRKTYGYHMYMQTKNIALLMEIFNHSSEKVTLRYIGVNQDAMDKAMTRFKI | not soluble
MNGCKQSASKVFKLVGGFNKASSRCFSSEKLIPKDLKIVKNPTSEQIKQFQKLVGDFNDIKLLKETMKDNYQLYLLCHKDSTVLSGTQSITYKSLNRSIPDFQTFGLSYQPDNTYNLLPHLMHEMATDFKSVKMNSGGCVDSKYAAVWRKVLHTKVRGPTYYVSHYKPDEVFNPELEFDDVVVKKFSDVPVEHVVKYDNSIFPYERKEYILAKFKNGVGRVAYNKSGEVIGIGLVSTESSGNCEIGPIYCDNKNAAQAIFQSIIQDLPMKDLKDVLVRCSDKFEDSATWIRPFLRRSHEMTPFAHIKFNRVIPDGLNFSKVFVSSNPSNAPC | not soluble
MNGEVMDELIQKLERVSQTSFIGSGKLMELSELVEMHEADVVIFNSELSATQVRNISKIVDARIIDLEHHHHHH | not soluble
MNGKQRMVEQSKQWLSEALIELMKTKDYQDISITEIAQKAELSRKTFYHSFKNKEAVINYLCDQLFDQYFQKLVKQEPQIGEAMLNTTFDIFLNFWWQQRSIIRLLIQQGLFDHMNEIWQKKAVPRYNQFAAPWHVKGTPKQVAYVMAFQLGGFTNILRLWLGQDSPEAPEKIKDLMLLAARQLADSLNPQKN | not soluble
MNHHLLSQAHLDKEKLVILVKEDEKMNSMHKDKPFFPLLIDYMSSGPVVAMLWEGCDVVKRARVILGEELEVGEFRSIFYDLVVRDTHKGCHCSDSVASANREYVLWFEEFKEGTRFD | not soluble
MNHPNAPFQPPMDIDAVWQHSLIRVTDAFALPPIVLRVDDAIIGTLGNFSVSTGKAKAKKTFNVCALVAAALVNGQVLEYQASFPESKRNILYFDTEQSPYHCQLVLQRILALAELPLDQQPEHLLFSHLRSIASPEERRAIIRYAIYHTPNVGLVVIDGIRDLMHDINNSAEATNLMGDLMQWTGERNIHIQTVLHLNKGDDNARGHIGTELNNKTESVLLITKDNSDADRSVVSASIIRSKPFPPFAFRLTEVDNICLRELDTDFTAKDAQPFSYQELSGEEHRTALREAFGQACELGYGDLLKRLSSSYLGVSGRPYGQTKLKELLRFLVNKRMLVKASRGRYQFNPDFHY | not soluble
MNIGIIGTGNMGNILIDAFLETRAVKPSCLTIINRTPAKAYHIKEKYPSVHIAKTIPEVIEQSQLIFICVKPIDIYPILKKYAEHFSDETCLVSITSPISPSQLETLVPCHVARIIPSITNRALSGASLFTFGDNCSEEWQQKLLRLFKNISTPLVIEEDITRVSSDIASCGPAFFSYLLQCFINAAVDKTNITHEEATTLVSEMVVGMGKLLEKEIFTLPTLQEKVCVKGGVTGEGIRVLEEHVGDMFHKLIERTHEKFDEDLECVDQQFNKHT | not soluble
MNIKKHLPWLGALLPIINAQADTNPNVVIIYIDDMGIGDIGCYGGKFVATPNIDKLAQDGLLFNQYYSSAPVSSPSRCGLTTGLFPIEVGINTFLNDKASNKRCEQRNYLDDKLPSMARAFQNAGYATGHIGKWHMGGGRDVHNAPSIKNYGFDEYLSTYESPDPDPAITASKWIWCDNDSIKRWKRTEYFVDKSIDFIKRHKDSPFFLNLWPDDMHTPWVPEFKQKERKSWETKEAFSPVLGEMDKQIGRFIKALDDMGLSENTIIIFTSDNGPAPSFKAVRSAYLRGTKNSLYEGGIRMPFIVKYPKKIKPGRVNNSSVLCAVDLYPTLCSVAGIKTEKNYKGDGQNYAKVLLGKSEAKRKTDLMWDFGRNKHFGFPGNPYDRSPHLAIRSGKWKLLVNGDGSDAQLYDMELDKFEKNNIAGEHPELVAKLSKKVCEWYAQNKDKGLQTDLLEHHHHHH | soluble
MNILYDERLDGPLPQVDKDGLLAELRLRLPDLELLHAAEDLRPYECDGLSAYRCTPLLVALPERIEQVQGLLALCHRLKVPVVARGAGTGLSGGALPLENGVLLVMARFRRILEIDPLGRFARVQPGVRNLAISQAAAPHGLYYAPDPSSQIACSIGGNVAENAGGVHCLKYGLTVHNLLQVDIVTLEGERLSLGSSALDSAGFDLLALFTGSEGLLGVVVEVTVRLLPRPPVAKVLLASFDDVESAGRAVADLIGAGIVPAGLEMMDNLSIRAAEDFIHAGYPVDAAAILLCELDGVEADVHEDCERVRELFEAAGATSVRQAQDEAERQRFWAGRKNAFPAVGRISPDYYCMDGSIPRRELPRVLHGIAELSREYGLRVANVFHAGDGNMHPLILFDANLAGELERAEALGGRILELCVAVGGSITGEHGVGREKINQMCAQFNADELTLFHAVKAAFDPAGLLNPGKNVPTLHRCAEFGAMHVHHGRLPFPELERF | not soluble
MNIVNKDSKNTFTRMCIGEAIIKLLKDTDFDKIRITSVAKCAGVSRITFYKYYESIHDALCDYLNIIIIEYLEECANNPENGSFLDYSHILFALEFFNRYKDYFLTLSRCGLHSILINSINNFMSEHFTNPKNYSEYRLYCYSGGLLNTFLKWEENGCDCDAGEIARTLEELYS | not soluble
MNIVPILLIRFYQSFISPLLGPSCKYHPTCSNYAIEAFRQHNFFYASWLTVWRVLRCNPFSKGGYDPVPPKSVKSAGNSKDSKLEHHHHHH | not soluble
MNKAQIEIYYCRQCNWMLRSAWLSQELLHTFSEEIEYVALHPDTGGRFEIFCNGVQIWERKQEGGFPEAKVLKQRVRDLIDPERDLGHVDRPSSTQSLEHHHHHH | soluble
MNKEERAKRQSKIRNFSIIAHIDHGKSTLADRILEKTNALTQREMKAQLLDSMDLERERGITIKLNAIQLNYKAKDGEEYILHLIDTPGHVDFTYEVSRSLAACEGAILVVDAAQGIEAQTLANVYLALDNNLEILPVINKIDLPSADPERVRQEVEDVIGLDASEAVLASAKAGIGIEEILEQIVEKVPAPTGDSEEPLQCMIFDSLYDPYRGVIAYIRVVNGTVKVGDKVRMMATGKEFEVTEVGVFTPKTTQRDELTVGDVGFLAASIKNVGDTRVGDTITHAKRPAAEPLAGYRKLNPMVFCGLYPIDSARYNDLRDALEKLELNDSALEFEPETSQALGFGFRCGFLGLLHMEILQERIEREFKIDLITTAPSVIYKVFLTNGEDMIVDNPSNMPDPQTIDRVEEPFVKAAIMVPNDYVGAVMEICQGKRGTFIDMQYLDETRVTLTYEIPLSEIVYDFFDQLKSNTKGYASFDYELIGYKPSKLVKMDILLNSEQVDALSFIVHRDSAYDRGKVIVEKLKELIPRQQFEVPIQATIGNKVVARSTIKAMRKNVLAKCYGGDISRKRKLLDKQKEGKKRMKSVGSVEVPQEAFMAVLKMDDN | soluble
MNKFVKSLLVAGSVAALAACSSSNNDAAGNGAAQTFGGYSVADLQQRYNTVYFGFDKYDITGEYVQILDAHAAYLNATPAAKVLVEGNTDERGTPEYNIALGQRRADAVKGYLAGKGVDAGKLGTVSYGEEKPAVLGHDEAAYSKNRRAVLAY | soluble
MNKKNKFFDIYLELEQDITSGVYPAGTLLPSENVLAKRFSVSRETIRKALVLLLENGCIQKLQGKGSIVIDRERYSFPVSGLTSFKELQKSEQMNATTEVIRNEETTLPDRIADFAGLPHGSNCLAILRVRYLEGEATILDYDYLLDKTEPIANEILEDSLYQYLENEKGYEISYAQKEITVEPLNAEDKKYLALHGDTHVVVVKSTVFLKDTTLFQYTESRHRLDKFRFIDFARRR | not soluble
MNKKQRDEISKLLSYVLRHAPESMGLTLDRDGWCEVDELVGKANANGHSFDRQALEEVVETNEKKRFTLSEDGQRIRAAQGHSTEQVQVQHIEKEPPAWLYHGTASRFMASIETQGLIAGSRHHVHLTEDPETALSVGKRYGQPVLLAVDAKGMFEAGVQFFQADNGVWLVEAVPIEWLTKVADTVSLEHHHHHH | soluble
MNKTKNYSDETIDAFHRGKFYLVQPRLCGHRSGMDAMLLASLVPNNFKGKVVDLGAGAGAVGLAVAARCLDVHVTLVERSAFMVSYAQKTLMLKQNENLSKRVCLLKADVTLKGRSRLEAGLVDNAFDFAIMNPPFNNPVDRKTPDEKKFEAHVMPESMFDDWLRSAAAIVKPGGYLGLIARPQSLTDILCALEGRFGNICVIPIHARTEKAAIRVLFYAKRGSRAALSLLRPLVIHEDGCHIFSPKIDAINNGHISLWELLK | not soluble
MNLASVLLLLAACHLSVSVNGQEHKEAIELSMANHDHVLGSAQVVFVAFCADWCPFSRRLKPIFEESARVFHQENPQASAVWAIVDSQRQADIGDKYFVNKYPTMKVFVNGELITKEYRSTRSVEALTNFVKFQLSTAINEFSSQDQLNQEMDKSKRNVVAWLKKDGPEFANLKKVASILREDCSFWVPTDHFGTQTNDNKLSFFDPDSNEEAKFTGNFNDYDFVKQWVTDKCIPLVREVTFENVEELTEEGMPFLIYFRDPDNKTTDKVFGEAVARELYDQRSAINPLLADGHKFAHPLKHLGKTKEDLPVLAIDSFQHMYLFPDMTQMNIPGKLREFVMDLHSGKLHKDFHENLDQRMIELAKAKAARGITDDHEAQAPSTRPIDTTPPPSVFKELKPSDKRYSILQKSEL | not soluble
